Measurements as given in patent US20200087373A1 (UNIVERSITY OF COPENHAGEN, published 2020).
Ends that are not written are not given here. * marks the point of attachment. C16 diacid = O=C(O)CCCCCCCCCCCCCCC(=O)*

T1: human GIP receptor (human, UniProt P48546 22-466)
T1 construct: whole, on cells; Transiently transfected COS-7 cells expressing the human GIP receptor; also called hGIPR
T1 sequence (looked up): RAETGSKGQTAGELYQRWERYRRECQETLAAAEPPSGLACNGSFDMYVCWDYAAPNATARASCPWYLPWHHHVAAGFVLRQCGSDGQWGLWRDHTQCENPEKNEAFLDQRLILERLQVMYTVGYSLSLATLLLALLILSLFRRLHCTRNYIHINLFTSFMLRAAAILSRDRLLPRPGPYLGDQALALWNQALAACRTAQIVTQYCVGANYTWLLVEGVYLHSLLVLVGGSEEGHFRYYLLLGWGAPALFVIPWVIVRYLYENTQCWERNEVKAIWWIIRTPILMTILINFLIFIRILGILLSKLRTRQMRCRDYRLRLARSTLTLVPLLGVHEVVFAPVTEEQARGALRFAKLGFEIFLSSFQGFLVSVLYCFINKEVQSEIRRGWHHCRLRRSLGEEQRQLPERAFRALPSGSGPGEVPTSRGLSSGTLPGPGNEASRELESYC


Experiments:
[1] = molecular target: T1, human GIP receptor; assay: ratio of Ki with 2% HSA to Ki without HSA, 125I-hGIP competition binding on hGIPR COS-7 cells;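 further: nonspecific binding was defined as radioligand signal on cells lacking the receptor transfection, with cell lysates measured after washes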
Description: (§1) After incubation, the cells were washed twice in ice-cold binding buffer (+/−2% HSA) and lysed using 200 mM NaOH with 1% SDS for 30 min. Nonspecific binding was determined as the binding of radioactive ligand to untransfected cells.

[2] = molecular target: T1, human GIP receptor; assay: 125I-hGIP(1-42) competition binding, COS-7 cells expressing human GIPR, without HSA;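 further: nonspecific binding defined as radioligand bound to cells lacking the transfected receptor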
Description: as §1

[3] = molecular target: T1, human GIP receptor; assay: 125I-hGIP(1-42) competition binding, COS-7 cells expressing human GIPR, with 2% HSA;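 further: nonspecific signal taken as radioligand bound to untransfected cells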
Description: as §1

[4] = molecular target: T1, human GIP receptor; assay: cell-based or functional assay

| Binder | Fold (Ki + HSA / Ki - HSA) [1] [fold] | Ki [2] [nM] | Ki [3] [nM] | cAMP accumulation Fold (fold change from GIP(5-30)NH2) [4] [fold] | cAMP accumulation IC50 [4] [nM] | cAMP accumulation logIC50 [4] |
| --- | --- | --- | --- | --- | --- | --- |
| TKISDYSIAMDKIHQQDFVNWLLAQK (C16-diacid (1,16-hexadecanedioic acid) on Lys at position 6 in GIP numbering (residue 2 of the entry); C-terminal amide) [AT168 [hGIP(5-30)NH2[F6K]-C16diacid/6]] | 2.3 | 41.3 | 97.7 | 5.3 | 148 | -6.83 log(M) |
| TFISK(C16 diacid)YSIAMDKIHQQDFVNWLLAQK-NH2 (N-terminus assumed; SMILES CC[C@H](C)[C@H](NC(=O)[C@H](CO)NC(=O)[C@H](Cc1ccc(O)cc1)NC(=O)[C@H](CCCCNC(=O)CCCCCCCCCCCCCCC(=O)O)NC(=O)[C@H](CO)NC(=O)[C@@H](NC(=O)[C@H](Cc1ccccc1)NC(=O)[C@@H](N)[C@@H](C)O)[C@@H](C)CC)C(=O)N[C@@H](C)C(=O)N[C@@H](CCSC)C(=O)N[C@@H](CC(=O)O)C(=O)N[C@@H](CCCCN)C(=O)N[C@H](C(=O)N[C@@H](Cc1c[nH]cn1)C(=O)N[C@@H](CCC(N)=O)C(=O)N[C@@H](CCC(N)=O)C(=O)N[C@@H](CC(=O)O)C(=O)N[C@@H](Cc1ccccc1)C(=O)N[C@H](C(=O)N[C@@H](CC(N)=O)C(=O)N[C@@H](Cc1c[nH]c2ccccc12)C(=O)N[C@@H](CC(C)C)C(=O)N[C@@H](CC(C)C)C(=O)N[C@@H](C)C(=O)N[C@@H](CCC(N)=O)C(=O)N[C@@H](CCCCN)C(N)=O)C(C)C)[C@@H](C)CC) [AT171 [hGIP(5-30)NH2[D9K]-C16diacid/9]] | 6.3 | 79.1 | 500 | 1.1 | 31.6 | -7.5 log(M) |
| TFISDYSK(C16 diacid)AMDKIHQQDFVNWLLAQK-NH2 (N-terminus assumed; SMILES CC[C@H](C)[C@H](NC(=O)[C@H](CCCCN)NC(=O)[C@H](CC(=O)O)NC(=O)[C@H](CCSC)NC(=O)[C@H](C)NC(=O)[C@H](CCCCNC(=O)CCCCCCCCCCCCCCC(=O)O)NC(=O)[C@H](CO)NC(=O)[C@H](Cc1ccc(O)cc1)NC(=O)[C@H](CC(=O)O)NC(=O)[C@H](CO)NC(=O)[C@@H](NC(=O)[C@H](Cc1ccccc1)NC(=O)[C@@H](N)[C@@H](C)O)[C@@H](C)CC)C(=O)N[C@@H](Cc1c[nH]cn1)C(=O)N[C@@H](CCC(N)=O)C(=O)N[C@@H](CCC(N)=O)C(=O)N[C@@H](CC(=O)O)C(=O)N[C@@H](Cc1ccccc1)C(=O)N[C@H](C(=O)N[C@@H](CC(N)=O)C(=O)N[C@@H](Cc1c[nH]c2ccccc12)C(=O)N[C@@H](CC(C)C)C(=O)N[C@@H](CC(C)C)C(=O)N[C@@H](C)C(=O)N[C@@H](CCC(N)=O)C(=O)N[C@@H](CCCCN)C(N)=O)C(C)C) [AT174 [hGIP(5-30)NH2[I12K]-C16diacid/12]] | 6.1 | 56.1 | 342 | 0.9 | 23.4 | -7.63 log(M) |
| TFISDYK(C16 diacid)IAMDKIHQQDFVNWLLAQK-NH2 (N-terminus assumed; SMILES CC[C@H](C)[C@H](NC(=O)[C@H](CCCCNC(=O)CCCCCCCCCCCCCCC(=O)O)NC(=O)[C@H](Cc1ccc(O)cc1)NC(=O)[C@H](CC(=O)O)NC(=O)[C@H](CO)NC(=O)[C@@H](NC(=O)[C@H](Cc1ccccc1)NC(=O)[C@@H](N)[C@@H](C)O)[C@@H](C)CC)C(=O)N[C@@H](C)C(=O)N[C@@H](CCSC)C(=O)N[C@@H](CC(=O)O)C(=O)N[C@@H](CCCCN)C(=O)N[C@H](C(=O)N[C@@H](Cc1c[nH]cn1)C(=O)N[C@@H](CCC(N)=O)C(=O)N[C@@H](CCC(N)=O)C(=O)N[C@@H](CC(=O)O)C(=O)N[C@@H](Cc1ccccc1)C(=O)N[C@H](C(=O)N[C@@H](CC(N)=O)C(=O)N[C@@H](Cc1c[nH]c2ccccc12)C(=O)N[C@@H](CC(C)C)C(=O)N[C@@H](CC(C)C)C(=O)N[C@@H](C)C(=O)N[C@@H](CCC(N)=O)C(=O)N[C@@H](CCCCN)C(N)=O)C(C)C)[C@@H](C)CC) [AT173 [hGIP(5-30)NH2[S11K]-C16diacid/11]] | 9.7 | 6 | 58.7 | 0.3 | 9.1 | -8.04 log(M) |
| TFISDYSIK(C16 diacid)MDKIHQQDFVNWLLAQK-NH2 (N-terminus assumed; SMILES CC[C@H](C)[C@H](NC(=O)[C@H](CCCCN)NC(=O)[C@H](CC(=O)O)NC(=O)[C@H](CCSC)NC(=O)[C@H](CCCCNC(=O)CCCCCCCCCCCCCCC(=O)O)NC(=O)[C@@H](NC(=O)[C@H](CO)NC(=O)[C@H](Cc1ccc(O)cc1)NC(=O)[C@H](CC(=O)O)NC(=O)[C@H](CO)NC(=O)[C@@H](NC(=O)[C@H](Cc1ccccc1)NC(=O)[C@@H](N)[C@@H](C)O)[C@@H](C)CC)[C@@H](C)CC)C(=O)N[C@@H](Cc1c[nH]cn1)C(=O)N[C@@H](CCC(N)=O)C(=O)N[C@@H](CCC(N)=O)C(=O)N[C@@H](CC(=O)O)C(=O)N[C@@H](Cc1ccccc1)C(=O)N[C@H](C(=O)N[C@@H](CC(N)=O)C(=O)N[C@@H](Cc1c[nH]c2ccccc12)C(=O)N[C@@H](CC(C)C)C(=O)N[C@@H](CC(C)C)C(=O)N[C@@H](C)C(=O)N[C@@H](CCC(N)=O)C(=O)N[C@@H](CCCCN)C(N)=O)C(C)C) [AT175 [hGIP(5-30)NH2[A13K]-C16diacid/13]] | 9.4 | 53 | 498 | 0.5 | 14.1 | -7.85 log(M) |
| TFISDK(C16 diacid)SIAMDKIHQQDFVNWLLAQK-NH2 (N-terminus assumed; SMILES CC[C@H](C)[C@H](NC(=O)[C@H](CO)NC(=O)[C@H](CCCCNC(=O)CCCCCCCCCCCCCCC(=O)O)NC(=O)[C@H](CC(=O)O)NC(=O)[C@H](CO)NC(=O)[C@@H](NC(=O)[C@H](Cc1ccccc1)NC(=O)[C@@H](N)[C@@H](C)O)[C@@H](C)CC)C(=O)N[C@@H](C)C(=O)N[C@@H](CCSC)C(=O)N[C@@H](CC(=O)O)C(=O)N[C@@H](CCCCN)C(=O)N[C@H](C(=O)N[C@@H](Cc1c[nH]cn1)C(=O)N[C@@H](CCC(N)=O)C(=O)N[C@@H](CCC(N)=O)C(=O)N[C@@H](CC(=O)O)C(=O)N[C@@H](Cc1ccccc1)C(=O)N[C@H](C(=O)N[C@@H](CC(N)=O)C(=O)N[C@@H](Cc1c[nH]c2ccccc12)C(=O)N[C@@H](CC(C)C)C(=O)N[C@@H](CC(C)C)C(=O)N[C@@H](C)C(=O)N[C@@H](CCC(N)=O)C(=O)N[C@@H](CCCCN)C(N)=O)C(C)C)[C@@H](C)CC) [AT172 [hGIP(5-30)NH2[Y10K]-C16diacid/10]] | 2.8 | 281 | 807 | 14.1 | 389 | -6.41 log(M) |
| TFK(C16 diacid)SDYSIAMDKIHQQDFVNWLLAQK-NH2 (N-terminus assumed; SMILES CC[C@H](C)[C@H](NC(=O)[C@H](CO)NC(=O)[C@H](Cc1ccc(O)cc1)NC(=O)[C@H](CC(=O)O)NC(=O)[C@H](CO)NC(=O)[C@H](CCCCNC(=O)CCCCCCCCCCCCCCC(=O)O)NC(=O)[C@H](Cc1ccccc1)NC(=O)[C@@H](N)[C@@H](C)O)C(=O)N[C@@H](C)C(=O)N[C@@H](CCSC)C(=O)N[C@@H](CC(=O)O)C(=O)N[C@@H](CCCCN)C(=O)N[C@H](C(=O)N[C@@H](Cc1c[nH]cn1)C(=O)N[C@@H](CCC(N)=O)C(=O)N[C@@H](CCC(N)=O)C(=O)N[C@@H](CC(=O)O)C(=O)N[C@@H](Cc1ccccc1)C(=O)N[C@H](C(=O)N[C@@H](CC(N)=O)C(=O)N[C@@H](Cc1c[nH]c2ccccc12)C(=O)N[C@@H](CC(C)C)C(=O)N[C@@H](CC(C)C)C(=O)N[C@@H](C)C(=O)N[C@@H](CCC(N)=O)C(=O)N[C@@H](CCCCN)C(N)=O)C(C)C)[C@@H](C)CC) [AT169 [hGIP(5-30)NH2[I7K]-C16diacid/7]] | 4.8 | 26.5 | 126 | 3 | 81.3 | -7.09 log(M) |
| TFIK(C16 diacid)DYSIAMDKIHQQDFVNWLLAQK-NH2 (N-terminus assumed; SMILES CC[C@H](C)[C@H](NC(=O)[C@H](CO)NC(=O)[C@H](Cc1ccc(O)cc1)NC(=O)[C@H](CC(=O)O)NC(=O)[C@H](CCCCNC(=O)CCCCCCCCCCCCCCC(=O)O)NC(=O)[C@@H](NC(=O)[C@H](Cc1ccccc1)NC(=O)[C@@H](N)[C@@H](C)O)[C@@H](C)CC)C(=O)N[C@@H](C)C(=O)N[C@@H](CCSC)C(=O)N[C@@H](CC(=O)O)C(=O)N[C@@H](CCCCN)C(=O)N[C@H](C(=O)N[C@@H](Cc1c[nH]cn1)C(=O)N[C@@H](CCC(N)=O)C(=O)N[C@@H](CCC(N)=O)C(=O)N[C@@H](CC(=O)O)C(=O)N[C@@H](Cc1ccccc1)C(=O)N[C@H](C(=O)N[C@@H](CC(N)=O)C(=O)N[C@@H](Cc1c[nH]c2ccccc12)C(=O)N[C@@H](CC(C)C)C(=O)N[C@@H](CC(C)C)C(=O)N[C@@H](C)C(=O)N[C@@H](CCC(N)=O)C(=O)N[C@@H](CCCCN)C(N)=O)C(C)C)[C@@H](C)CC) [AT170 [hGIP(5-30)NH2[S8K]-C16diacid/8]] | 2.2 | 594 | 1300 | 32.4 | 891 | -6.05 log(M) |
